Reference: PMC5563082, “Structural Mechanism for Modulation of Synaptic Neuroligin-Neurexin Signaling by MDGA Proteins” (Neuron, 2017)

T1: human MDGA2 extracellular domain (MDGA2_(ECTO); Gln21-Lys927) (human, UniProt Q7Z553 21-927)
T1 construct: human MAM domain-containing glycosylphosphatidylinositol anchor protein 2, Gln21-Lys927; Not deglycosylated; source: HEK293T, transient transfection, purified (IMAC, SEC)
T1 sequence (looked up): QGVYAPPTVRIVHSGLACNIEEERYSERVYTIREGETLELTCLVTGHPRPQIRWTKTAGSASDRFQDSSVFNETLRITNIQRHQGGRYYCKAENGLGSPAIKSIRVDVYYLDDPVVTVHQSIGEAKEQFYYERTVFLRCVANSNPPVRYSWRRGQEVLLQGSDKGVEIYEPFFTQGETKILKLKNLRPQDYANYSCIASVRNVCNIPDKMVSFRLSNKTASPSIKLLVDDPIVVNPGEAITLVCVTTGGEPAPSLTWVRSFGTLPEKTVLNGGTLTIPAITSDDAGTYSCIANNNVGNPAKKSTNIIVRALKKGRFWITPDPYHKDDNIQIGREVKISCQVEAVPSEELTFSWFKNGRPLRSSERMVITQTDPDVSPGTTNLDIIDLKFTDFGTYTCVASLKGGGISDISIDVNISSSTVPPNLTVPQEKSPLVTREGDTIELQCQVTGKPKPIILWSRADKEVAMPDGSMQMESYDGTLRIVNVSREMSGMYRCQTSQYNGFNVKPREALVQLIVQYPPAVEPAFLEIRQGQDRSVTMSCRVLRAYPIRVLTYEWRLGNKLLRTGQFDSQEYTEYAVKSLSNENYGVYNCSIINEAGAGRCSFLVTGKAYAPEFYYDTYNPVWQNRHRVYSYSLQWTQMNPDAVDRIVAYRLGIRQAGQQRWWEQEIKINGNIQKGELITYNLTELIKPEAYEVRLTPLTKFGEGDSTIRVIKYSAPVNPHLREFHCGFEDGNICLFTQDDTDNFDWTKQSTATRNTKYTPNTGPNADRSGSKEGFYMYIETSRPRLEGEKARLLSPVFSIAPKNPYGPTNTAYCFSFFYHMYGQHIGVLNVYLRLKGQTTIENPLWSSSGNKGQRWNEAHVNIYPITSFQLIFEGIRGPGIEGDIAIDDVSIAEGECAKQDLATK

T2: human MDGA1 extracellular domain (MDGA1_(ECTO); Gln19-Lys925) (human, UniProt Q8NFP4-1 19-925)
T2 construct: human MAM domain-containing glycosylphosphatidylinositol anchor protein 1, Gln19-Lys925; Not deglycosylated; also called human MDGA1_(ECTO); source: HEK293T, transient transfection, purified (IMAC, SEC)
T2 sequence (looked up): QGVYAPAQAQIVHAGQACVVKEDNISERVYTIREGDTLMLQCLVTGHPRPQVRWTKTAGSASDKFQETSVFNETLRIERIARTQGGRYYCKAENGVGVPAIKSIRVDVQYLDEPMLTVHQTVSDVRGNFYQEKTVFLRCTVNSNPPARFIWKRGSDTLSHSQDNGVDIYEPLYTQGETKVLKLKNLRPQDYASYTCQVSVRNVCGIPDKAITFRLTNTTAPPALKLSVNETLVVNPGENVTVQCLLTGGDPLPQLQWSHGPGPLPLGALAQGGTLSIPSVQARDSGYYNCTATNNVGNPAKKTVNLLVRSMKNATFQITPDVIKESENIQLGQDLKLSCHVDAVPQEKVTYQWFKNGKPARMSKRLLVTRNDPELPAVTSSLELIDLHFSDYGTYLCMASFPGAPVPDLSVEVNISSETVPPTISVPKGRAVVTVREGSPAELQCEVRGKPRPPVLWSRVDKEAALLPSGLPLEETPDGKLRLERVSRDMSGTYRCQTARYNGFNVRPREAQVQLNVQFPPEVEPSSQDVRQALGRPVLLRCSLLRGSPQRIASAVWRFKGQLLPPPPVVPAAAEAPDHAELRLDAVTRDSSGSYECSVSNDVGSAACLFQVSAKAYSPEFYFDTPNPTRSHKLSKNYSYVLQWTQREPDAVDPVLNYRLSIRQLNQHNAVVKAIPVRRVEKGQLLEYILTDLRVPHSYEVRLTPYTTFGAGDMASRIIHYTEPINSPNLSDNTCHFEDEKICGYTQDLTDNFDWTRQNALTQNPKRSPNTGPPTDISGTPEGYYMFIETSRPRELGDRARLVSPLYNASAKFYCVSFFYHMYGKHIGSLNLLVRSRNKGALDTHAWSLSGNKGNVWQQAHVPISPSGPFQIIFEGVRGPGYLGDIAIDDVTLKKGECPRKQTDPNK

B1: human NL3(+A2)_(ECTO), immobilised for SPR (domain or fragment, UniProt Q9NZ94-1 38-636, looked up)
chain: QAPAPTVNTHFGKLRGARVPLPSEILGPVDQYLGVPYAAPPIGEKRFLPPEPPPSWSGIRNATHFPPVCPQNIHTAVPEVMLPVWFTANLDIVATYIQEPNEDCLYLNVYVPTEDGSGAKKQGEDLADNDGDEDEDIRDSGAKPVMVYIHGGSYMEGTGNMIDGSILASYGNVIVITLNYRVGVLGFLSTGDQAAKGNYGLLDQIQALRWVSENIAFFGGDPRRITVFGSGIGASCVSLLTLSHHSEGLFQRAIIQSGSALSSWAVNYQPVKYTSLLADKVGCNVLDTVDMVDCLRQKSAKELVEQDIQPARYHVAFGPVIDGDVIPDDPEILMEQGEFLNYDIMLGVNQGEGLKFVEGVVDPEDGVSGTDFDYSVSNFVDNLYGYPEGKDTLRETIKFMYTDWADRDNPETRRKTLVALFTDHQWVEPSVVTADLHARYGSPTYFYAFYHHCQSLMKPAWSDAAHGDEVPYVFGVPMVGPTDLFPCNFSKNDVMLSAVVMTYWTNFAKTGDPNKPVPQDTKFIHTKANRFEEVAWSKYNPRDQLYLHIGLKPRVRDHYRATKVAFWKHLVPHLYNLHD
modifications: biotin on the Avitag (in vivo biotinylation by BirA)
notes: source: HEK293T, co-transfected with ER-resident BirA; dialysed conditioned medium, captured on streptavidin chip
B2: human NL3(+A1+A2)_(ECTO), immobilised for SPR (domain or fragment, UniProt Q9NZ94-1 38-636, looked up)
chain: QAPAPTVNTHFGKLRGARVPLPSEILGPVDQYLGVPYAAPPIGEKRFLPPEPPPSWSGIRNATHFPPVCPQNIHTAVPEVMLPVWFTANLDIVATYIQEPNEDCLYLNVYVPTEDVKRISKECARKPNKKICRKGGSGAKKQGEDLADNDGDEDEDIRDSGAKPVMVYIHGGSYMEGTGNMIDGSILASYGNVIVITLNYRVGVLGFLSTGDQAAKGNYGLLDQIQALRWVSENIAFFGGDPRRITVFGSGIGASCVSLLTLSHHSEGLFQRAIIQSGSALSSWAVNYQPVKYTSLLADKVGCNVLDTVDMVDCLRQKSAKELVEQDIQPARYHVAFGPVIDGDVIPDDPEILMEQGEFLNYDIMLGVNQGEGLKFVEGVVDPEDGVSGTDFDYSVSNFVDNLYGYPEGKDTLRETIKFMYTDWADRDNPETRRKTLVALFTDHQWVEPSVVTADLHARYGSPTYFYAFYHHCQSLMKPAWSDAAHGDEVPYVFGVPMVGPTDLFPCNFSKNDVMLSAVVMTYWTNFAKTGDPNKPVPQDTKFIHTKANRFEEVAWSKYNPRDQLYLHIGLKPRVRDHYRATKVAFWKHLVPHLYNLHD
modifications: biotin on the Avitag (in vivo biotinylation by BirA)
notes: as for B1

What was measured:
[1] = biological target: T1, human MDGA2 extracellular domain …; assay: SPR; biotinylated NL_(ECTO)-Avitag variants captured from dialysed conditioned medium on streptavidin CM5 chip (500 RU; 550 RU for the ΔSite series; 1000 RU for NL3 and NL3 Arg451Cys in the R451C series); β-NRX1_(LNS6)(±4), MDGA1_(ECTO), MDGA2_(ECTO) injected, 15 concentrations, two-fold series from 50 μM; TBS-CTB (10 mM Tris pH 7.4, 150 mM NaCl, 3 mM CaCl2, 0.005% Tween-20, 1.0 g/L BSA); equilibrium analysis, 1:1 …; settings: both partners purified
[2] = biological target: T2, human MDGA1 extracellular domain …; assay: as above; settings: both partners purified

Row | Binder | binding result [1] | binding result [2]
1 | B1 | binds | binds
2 | B2 | binds | binds
